Test results from US20260000752A1 (AKSTON BIOSCIENCES, published 2026).

B1: recombinant human Fc(gamma)RIIb, biotinylated (R&D Systems) (receptor)
chain: APPKAVLKLEPQWINVLQEDSVTLTCRGTHSPESDSIQWFHNGNLIPTHTQPSYRFKANNNDSGEYTCQTGQTSLSDPVHLTVLSEWLVLQTPHLEFQEGETIVLRCHSWKDKPLVKVTFFQNGKSKKFSRSDPNFSIPQANHSHSGDYHCTGNIGYTLYSSKPVTITVQAP
B2: recombinant human Fc(gamma)RIIa, biotinylated (R&D Systems) (receptor)
chain: AAPPKAVLKLEPPWINVLQEDSVTLTCQGARSPESDSIQWFHNGNLIPTHTQPSYRFKANNNDSGEYTCQTGQTSLSDPVHLTVLSEWLVLQTPHLEFQEGETIMLRCHSWKDKPLVKVTFFQNGKSQKFSHLDPTFSIPQANHSHSGDYHCTGNIGYTLFSSKPVTITVQVPSMGSSSPMGI
B3: recombinant human Fc(gamma)RI, biotinylated (R&D Systems) (receptor, UniProt P12314 16-288, looked up)
chain: QVDTTKAVITLQPPWVSVFQEETVTLHCEVLHLPGSSSTQWFLNGTATQTSTPSYRITSASVNDSGEYRCQRGLSGRSDPIQLEIHRGWLLLQVSSRVFTEGEPLALRCHAWKDKLVYNVLYYRNGKAFKFFHWNSNLTILKTNISHNGTYHCSGMGKHRYTSAGISVTVKELFPAPVLNASVTSPLLEGNLVTLSCETKLLLQRPGLQLYFSFYMGSKTLRGRNTSSEYQILTARREDSGLYWCEAATEDGNVLKRSPELELQVLGLQLPTP
B4: human Fc(gamma)RIIIb (receptor)
chain: GMRTEDLPKAVVFLEPQWYSVLEKDSVTLKCQGAYSPEDNSTQWFHNENLISSQASSYFIDAATVNDSGEYRCQTNLSTLSDPVQLEVHIGWLLLQAPRWVFKEEDPIHLRCHSWKNTALHKVTYLQNGKDRKYFHHNSDFHIPKATLKDSGSYFCRGLVGSKNVSSETVNITITQGLAVSTIS

Biological target: SARS-CoV-2-RBD-hIgG-Fc fusion protein of SEQ ID NO: 19

Binder | EC50 [µg/mL]
B1 | 2.05
B2 | 2.28
B3 | 0.0339
B4 | 11.7
